Earlier results as cited in US5474978A, “Insulin analog formulations” (Eli Lilly and Company, priority 1994, dated 1995).

Conditions: compared with Zn-insulin

With Pro^B29 insulin as the substance, how does the Zn-induced association read?
The Zn-induced association was “demonstrate Zn-induced association, but less than Zn-insulin”.

Which Zn-induced association does the source give for Ala^B28 Pro^B29 -hI here?
Its Zn-induced association is “little or no Zn-induced association”.

With Asp^B28 insulin as the substance, how does the Zn-induced association read?
Its Zn-induced association is “demonstrate Zn-induced association, but less than Zn-insulin”.

Which Zn-induced association does the source give for Asp^B28 Pro^B29 -hI here?
The Zn-induced association was “little or no Zn-induced association”.

For Lys^B28 insulin, which Zn-induced association is on record?
Its Zn-induced association is “demonstrate Zn-induced association, but less than Zn-insulin”.

For Ala^B28 insulin, which Zn-induced association is on record?
Its Zn-induced association is “demonstrate Zn-induced association, but less than Zn-insulin”.
